Measured values as given in paper PMC9154775.

Target: hC3nb1-K57-ScFc (llama | bovine)
Test: SPR

Kd: 3.7 nM
Substance: human Complement C3 (natural protein)
